To fix the notation:
B1: HA-TRAF2 (other, human, UniProt Q12933 1-501, looked up)
chain: MAAASVTPPGSLELLQPGFSKTLLGTKLEAKYLCSACRNVLRRPFQAQCGHRYCSFCLASILSSGPQNCAACVHEGIYEEGISILESSSAFPDNAARREVESLPAVCPSDGCTWKGTLKEYESCHEGRCPLMLTECPACKGLVRLGEKERHLEHECPERSLSCRHCRAPCCGADVKAHHEVCPKFPLTCDGCGKKKIPREKFQDHVKTCGKCRVPCRFHAIGCLETVEGEKQQEHEVQWLREHLAMLLSSVLEAKPLLGDQSHAGSELLQRCESLEKKTATFENIVCVLNREVERVAMTAEACSRQHRLDQDKIEALSSKVQQLERSIGLKDLAMADLEQKVLEMEASTYDGVFIWKISDFARKRQEAVAGRIPAIFSPAFYTSRYGYKMCLRIYLNGDGTGRGTHLSLFFVVMKGPNDALLRWPFNQKVTLMLLDQNNREHVIDAFRPDVTSSSFQRPVNDMNIASGCPLFCPVSKMEAKNSYVRDDAIFIKAIVDLTGL
notes: also called 外源HA-TRAF2; not shown: HA tag
B2: SHP-1 (enzyme)
chain: not shown
notes: also called 内源性SHP-1; 外源SHP-1
B3: B3ICDhFc (LILRB3胞内结构域, C末端与hFc融合) (Fc fusion, human, UniProt O75022 465-631, looked up)
chain: RRQRHSKHRTSDQRKTDFQRPAGAAETEPKDRGLLRRSSPAADVQEENLYAAVKDTQSEDRVELDSQSPHDEDPQAVTYAPVKHSSPRREMASPPSSLSGEFLDTKDRQVEEDRQMDTEAAASEASQDVTYAQLHSLTLRRKATEPPPSQEGEPPAEPSIYATLAIH
notes: domain: 胞内结构域; Purified for the in vitro pull-down with GST-TRAF2; not shown: human Fc (hFc) fused at the C-terminus
B4: TRAF2 (other, human, UniProt Q12933 2-501, looked up)
chain: AAASVTPPGSLELLQPGFSKTLLGTKLEAKYLCSACRNVLRRPFQAQCGHRYCSFCLASILSSGPQNCAACVHEGIYEEGISILESSSAFPDNAARREVESLPAVCPSDGCTWKGTLKEYESCHEGRCPLMLTECPACKGLVRLGEKERHLEHECPERSLSCRHCRAPCCGADVKAHHEVCPKFPLTCDGCGKKKIPREKFQDHVKTCGKCRVPCRFHAIGCLETVEGEKQQEHEVQWLREHLAMLLSSVLEAKPLLGDQSHAGSELLQRCESLEKKTATFENIVCVLNREVERVAMTAEACSRQHRLDQDKIEALSSKVQQLERSIGLKDLAMADLEQKVLEMEASTYDGVFIWKISDFARKRQEAVAGRIPAIFSPAFYTSRYGYKMCLRIYLNGDGTGRGTHLSLFFVVMKGPNDALLRWPFNQKVTLMLLDQNNREHVIDAFRPDVTSSSFQRPVNDMNIASGCPLFCPVSKMEAKNSYVRDDAIFIKAIVDLTGL
notes: also called 内源TRAF2

One experiment has as its target T1, LILRB3 QEE509-511AAA突变体 (human, UniProt O75022 24-631).
T1 construct: It is probably hFc-fused like the other LILRB3 constructs; also called B3AAA
The experiment in a line: co-IP in 293T cells.

The next experiment addresses 氨基酸505-515缺失的LILRB3 (human, UniProt O75022 24-631). Kind of experiment: co-IP in 293T cells.
For experiment [1], the target named is T2, LILRB3-hFc (全长LILRB3, C末端hFc标签) (human, UniProt O75022 24-631).
T2 construct: whole, on cells; also called hFc加标签的B3-FL; not shown: human Fc (hFc) fused at the C-terminus in the pFLAG-CMV5.1 vector
The experiment in a line: co-IP of HA-TRAF2 with hFc-fused LILRBs in 293T cells.

Experiment [2] has as its target T2, LILRB3-hFc (全长LILRB3, C末端hFc标签). Kind of experiment: co-IP in THP-1 cells stably expressing LILRB3-hFc.
The next experiment has as its target FLAG-cFLIP (human, UniProt O15519 1-480). The experiment in a line: co-IP in 293T cells.
For the experiment “HA-TRAF2”, the target named is B1. The experiment in a line: co-IP in 293T cells with or without FLAG-A20N (Fig 6j).
Experiment [3] deals with T3, LILRB3 (白细胞免疫球蛋白样受体亚家族B成员3), full length (human, UniProt O75022 24-631).
T3 construct: whole, on cells; also called B3-FL; 全长LILRB3
Kind of experiment: co-IP from primary M5 AML cells with human anti-LILRB3 antibody.

The target in experiment [4] is T2, LILRB3-hFc (全长LILRB3, C末端hFc标签). The experiment in a line: co-IP of endogenous TRAF2 with LILRB3-hFc in THP-1 cells, with LPS or PBS.

Chain of FLAG-cFLIP (O15519 whole entry): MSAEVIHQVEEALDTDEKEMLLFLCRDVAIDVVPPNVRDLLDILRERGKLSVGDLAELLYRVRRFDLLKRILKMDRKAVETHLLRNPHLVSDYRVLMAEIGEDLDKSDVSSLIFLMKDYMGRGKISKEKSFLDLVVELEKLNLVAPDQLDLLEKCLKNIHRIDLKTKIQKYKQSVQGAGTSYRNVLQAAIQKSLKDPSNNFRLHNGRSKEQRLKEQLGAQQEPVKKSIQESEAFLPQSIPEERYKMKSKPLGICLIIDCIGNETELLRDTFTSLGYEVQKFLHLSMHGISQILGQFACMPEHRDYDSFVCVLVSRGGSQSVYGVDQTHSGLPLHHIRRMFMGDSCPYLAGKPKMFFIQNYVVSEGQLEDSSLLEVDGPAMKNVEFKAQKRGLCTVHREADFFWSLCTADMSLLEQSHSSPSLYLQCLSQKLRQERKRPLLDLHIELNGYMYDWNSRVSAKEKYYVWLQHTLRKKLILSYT

Turning to B1, the binding result with LILRB3 QEE509-511AAA突变体 is on record as “no binding”; with 氨基酸505-515缺失的LILRB3, “no binding”; in experiment [1], “binds”.
For B2, the binding result in experiment [2] was “binds”.
Take B3: the binding result in the experiment with FLAG-cFLIP is reported as “no binding”; with HA-TRAF2, “binds”.
As for B4, the binding result in experiment [3] and in experiment [4] was “binds” in each case.
